Values after ≈ are worked out from the molar mass of the structure shown. Values belong to the molecule of their own block, whether it stands above or below them. Numbered stars: 1 amine (or outer) side, 2 acyl side, 3 side chain; on linkers, the order of the positions; unused ones are H or OH. Bridge positions count the residues as written; N and C are the ends. Square brackets hold non-standard residues; d marks the D form. Primed or numbered codes have the meaning given here. MB(4) = Monomer B (PyrS), N-Alloc pyrrolidine stapling residue, (S)-3-amino-1-(allyloxycarbonyl)pyrrolidine-3-carboxylic acid, C=CCOC(=O)N1CC[C@@](N[*:1])(C(=O)[*:2])C1; MC″ = Monomer C = PyrR, pyrrolidine stapling residue bearing Alloc (allyl carbamate on pyrrolidine N); R6″ = stapling residue, (R)-2-(5-hexenyl)alanine (drawn only), C=CCCCC[C@@](C)(N[*:1])C(=O)[*:2]; MB(5) = Monomer B (PyrS), N-Alloc pyrrolidine stapling residue; MB(14) = Monomer B = PyrS, Alloc-pyrrolidine stapling residue; MF = Monomer F (SdN), acyclic alkyl-N(Alloc) stapling residue; Arg(Me2s) = CN=C(NC)NCCC[C@H](N)C(=O)O; hArg = N=C(N)NCCCC[C@H](N)C(=O)O; R8 = C=CCCCCCC[C@@](C)(N)C(=O)O; S8 = C=CCCCCCC[C@](C)(N)C(=O)O; S5 = C=CCCC[C@](C)(N)C(=O)O
Columns and labels:
[1] = biological target: T1, full-length beta-catenin (Axin site) (Homo sapiens, UniProt P35222); experiment: Competition fluorescence polarization assay (Axin site probe); format: binding; details: competition fluorescence polarization, Table 2; read-out: in vitro FP EC50
T1 construct: 15 nM full-length beta-catenin, 20 nM FITC labeled peptide in buffer
T1 sequence (P35222 1-781): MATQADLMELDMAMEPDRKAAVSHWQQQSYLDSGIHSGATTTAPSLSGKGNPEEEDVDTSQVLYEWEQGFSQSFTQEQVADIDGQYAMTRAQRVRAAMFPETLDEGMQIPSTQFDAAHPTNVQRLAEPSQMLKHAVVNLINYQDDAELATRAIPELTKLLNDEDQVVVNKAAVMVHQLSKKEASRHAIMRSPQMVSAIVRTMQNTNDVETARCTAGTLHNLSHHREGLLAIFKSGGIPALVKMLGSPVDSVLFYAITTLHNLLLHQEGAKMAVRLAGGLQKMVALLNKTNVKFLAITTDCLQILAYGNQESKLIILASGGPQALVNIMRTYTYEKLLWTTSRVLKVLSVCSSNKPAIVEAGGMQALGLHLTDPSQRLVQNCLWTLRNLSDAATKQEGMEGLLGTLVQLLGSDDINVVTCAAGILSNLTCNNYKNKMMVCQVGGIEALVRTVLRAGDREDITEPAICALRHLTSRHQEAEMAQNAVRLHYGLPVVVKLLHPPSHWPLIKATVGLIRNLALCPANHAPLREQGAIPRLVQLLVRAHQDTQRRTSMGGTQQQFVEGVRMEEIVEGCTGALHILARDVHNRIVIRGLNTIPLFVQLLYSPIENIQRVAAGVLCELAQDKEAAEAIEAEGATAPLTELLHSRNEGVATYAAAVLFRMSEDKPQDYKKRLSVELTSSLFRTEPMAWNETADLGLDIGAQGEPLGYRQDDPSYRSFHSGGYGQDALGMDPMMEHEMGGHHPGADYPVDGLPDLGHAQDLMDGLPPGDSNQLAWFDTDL
Procedure, shortened: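 Competition FP: 15 nM full-length β-catenin pre-incubated 5 min with 20 nM FITC-labelled stapled Axin-site peptide, then titrated peptide added (3-fold series from 5 μM) for 15 min in the dark. Buffer 50 mM Tris pH 8.0, 250 mM NaCl, 2% glycerol, 0.5 mM EDTA; duplicate reads.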

[2] = Solubility in DPBS (A280 of supernatant); format: physicochemical; details: DPBS, Table 2; read-out: Solubility
Procedure, shortened: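 Dried peptide reconstituted in DPBS in triplicate, vortexed, sonicated and centrifuged. Supernatant A280 measured; concentration calculated using the tryptophan extinction coefficient.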

full-length beta-catenin = biological target: T2, full-length beta-catenin (UniProt P35222 2-781, limits assumed); experiment: competition FP, grade of FP EC50 (+++: <=100 nM)
T2 construct: mature; also called full-length ß-Catenin; β-catenin
T2 sequence (looked up): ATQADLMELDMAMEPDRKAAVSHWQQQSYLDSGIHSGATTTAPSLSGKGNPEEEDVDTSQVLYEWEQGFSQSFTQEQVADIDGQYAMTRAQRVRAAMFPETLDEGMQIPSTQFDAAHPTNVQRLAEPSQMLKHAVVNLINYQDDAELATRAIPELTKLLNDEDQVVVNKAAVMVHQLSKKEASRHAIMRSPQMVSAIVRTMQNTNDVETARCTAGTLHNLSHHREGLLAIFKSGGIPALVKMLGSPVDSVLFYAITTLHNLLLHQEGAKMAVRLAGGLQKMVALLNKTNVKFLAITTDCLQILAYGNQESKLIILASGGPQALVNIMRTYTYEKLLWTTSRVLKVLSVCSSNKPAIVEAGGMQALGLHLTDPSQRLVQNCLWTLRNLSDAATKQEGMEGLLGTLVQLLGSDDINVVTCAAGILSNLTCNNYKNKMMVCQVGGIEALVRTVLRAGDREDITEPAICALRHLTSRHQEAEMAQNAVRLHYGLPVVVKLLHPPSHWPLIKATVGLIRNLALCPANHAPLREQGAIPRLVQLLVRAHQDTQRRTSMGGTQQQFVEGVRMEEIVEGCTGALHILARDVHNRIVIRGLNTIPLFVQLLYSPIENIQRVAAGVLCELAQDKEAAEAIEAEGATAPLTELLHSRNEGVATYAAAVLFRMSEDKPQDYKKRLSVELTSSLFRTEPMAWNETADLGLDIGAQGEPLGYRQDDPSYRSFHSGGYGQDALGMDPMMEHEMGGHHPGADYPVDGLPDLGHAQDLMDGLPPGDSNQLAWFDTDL
Description: In some embodiments, a competition fluorescence polarization assay is used to assess binding of provided compounds to beta-catenin. In an exemplary procedure, solutions of provided compounds, e.g., provided stapled peptides, were prepared in a buffer (e.g., 50 mM Tris pH 8.0, 250 mM NaCl, 2% glycerol, 0.5 mM EDTA, 0.02% w/v sodium azide) using a 3-fold serial dilution from 5 µM. Probe solution (15 nM full-length ß-Catenin, 20 nM FITC labeled peptide in buffer) was prepared and incubated for a period of time, e.g., 5 minutes, and the a volume, e.g., 40 µL per well plated in suitable plate, e.g., a black polystyrene 384-well plate (Corning). Equal volume of the serial diluted peptide was added to the plate and incubated protected from light for 15 minutes prior to read. Reads were performed on a Spectramax M5 (Molecular Devices) in duplicate. Suitable probe was FITC-PEG1-PQ-S5-ILD-S5-HVRRVWR (SEQ ID NO: 1) (hydrocarbon staple formed by two S5 via olefin metathesis) and/or FITC-bA-PQ-S5-ILD-S5-HVRRVWR (SEQ ID NO: 3) (hydrocarbon staple formed by two S5 via olefin metathesis). […] Another peptide, FPO217c (Ac-AR_8ILDAHIM$B5$RVW (SEQ ID NO: 280), with N-terminal proline removed and valine replaced with isoleucine compared to FP0025c) was prepared.

Molecule: Ac-[R8]ILDAHI[MB(14)]RVW-NH2 (staple 1-8) [FP0220c]
FP EC50 (full-length beta-catenin): ≤ 100 nM

Molecule: AXILDAHIXRVW (not fully specified; Ac-A-ME-I-L-D-A-H-I-S8-R-V-W-NH2; carbamate staple ME/S8) [FP0335c Isomer 2]
FP EC50 (full-length beta-catenin): ≤ 100 nM

Molecule: Ac-A[R8]ILDAHI[MB(14)]RVW-NH2 [FP0217u]
FP EC50 (full-length beta-catenin): ≤ 100 nM

B1: FP0217rc (peptide)
peptide: AXILDAHIXRVW
modifications: Ac-A-R8-I-L-D-A-H-I-MB-R-V-W-NH2; carbamate staple R8/MB with the olefin reduced to -CH2-CH2-
notes: also called FPO217rc
FP EC50 (full-length beta-catenin): ≤ 100 nM

Molecule: Ac-A[MI]ILDAHI[S5]RVW-NH2 (staple 2-9; also: carbamate staple, olefin geometry not assigned) [FP0506c Isomer 2]
FP EC50 (full-length beta-catenin): ≤ 100 nM

Molecule: Ac-A[R6″]ILDAHI[MH]RVW-NH2 (staple 2-9) [FP0511a]
FP EC50 (full-length beta-catenin): ≤ 100 nM

Molecule: Ac-PA[MC″]ILDAHV[S8]RVW-NH2 (staple 3-10) [FP0005c]
FP EC50 (full-length beta-catenin): ≤ 100 nM

Second part, the molecule after the results:

EC50 [1]: 100 to 500 nM
solubility [2]: 13 µM (≈ 20.8 µg/mL)
Molecule: CC[C@H](C)[C@@H]1NC(=O)[C@H](Cc2c[nH]cn2)NC(=O)[C@H](C)NC(=O)[C@H](CC(=O)O)NC(=O)[C@H](CC(C)C)NC(=O)[C@H]([C@@H](C)CC)NC(=O)[C@](C)(NC(=O)[C@H](C)NC(C)=O)CCCCCCC=CCOC(=O)N2CC[C@@](C(=O)N[C@@H](CCCNC(=N)N)C(=O)N[C@](C)(C(=O)N[C@@H](Cc3c[nH]c4ccccc34)C(N)=O)C(C)C)(C2)NC1=O [FP0632c, Ac-A-R8-I-L-D-A-H-I-MB-R-aMeV-W-NH2]

FP EC50 (full-length beta-catenin): ≤ 100 nM
Molecule: AXILDAHIXRVW (not fully specified; Ac-A-MI-I-L-D-A-H-I-MF-R-V-W-NH2; carbamate staple MI/MF) [FP0587c]

FP EC50 (full-length beta-catenin): ≤ 100 nM
Molecule: AXILDAHIXRVW (not fully specified; Ac-A-ME-I-L-D-A-H-I-MC-R-V-W-NH2; carbamate staple ME/MC) [FP0605c]

FP EC50 (full-length beta-catenin): ≤ 100 nM
Molecule: Ac-A[R8]ILDAHI[MB(4)][hArg]VW-NH2 (staple 2-9) [FP0634c]

FP EC50 (full-length beta-catenin): ≤ 100 nM
Molecule: Ac-A[R8]ILDAHI[MB(4)][Arg(Me2s)]VW-NH2 (staple 2-9) [FP0640c]

FP EC50 (full-length beta-catenin): ≤ 100 nM
Molecule: AXILDAHIXRVW (not fully specified; Ac-A-MI-I-L-D-A-H-I-MG-R-V-W-NH2; carbamate staple MI/MG) [FP0588c]

FP EC50 (full-length beta-catenin): ≤ 100 nM
Molecule: AXILDAHIXRVW (not fully specified; Ac-A-MG-I-L-D-A-H-I-MC-R-V-W-NH2; carbamate staple MG/MC) [FP0598c]

FP EC50 (full-length beta-catenin): ≤ 100 nM
Molecule: AXILDAHIXRVW (not fully specified; Ac-A-MA-I-L-D-A-H-I-MB-R-V-W-NH2; carbamate staple MA/MB) [FP0617c]

FP EC50 (full-length beta-catenin): ≤ 100 nM
Molecule: Ac-A[MF]ILDAHI[MB(5)]RVW-NH2 (staple 2-9) [FP0626c]
